Assay results published in article PMC5789857.

Target: TBEV envelope protein (E-protein), strain Hypr, in the purified virion (tick-borne encephalitis virus, strain Hypr) (UniProt Q01299)
Assay: cryo-EM structure

“TBEV envelope protein (E-protein), strain Hypr, in the purified virion (from UniProt Q01299) (natural protein)” showed a stoichiometry N of 2.
